According to patent US20240279325A1 (Chugai, published 2024):

Tests used:
[1] = target: T1, human FcγRIIIa type V (allotype V158) extracellular domain with C-terminal His tag (human, UniProt P08637 17-208); experiment: SPR (Biacore), antibody captured, FcγR analyte
T1 construct: also called FcγRIIIaV

[2] = target: T2, FcγRIIb extracellular domain with C-terminal His tag (human, UniProt P31994 43-217); experiment: SPR; KD for FcγRIIaH divided by KD for FcγRIIb
T2 construct: extracellular domain
T2 sequence (looked up): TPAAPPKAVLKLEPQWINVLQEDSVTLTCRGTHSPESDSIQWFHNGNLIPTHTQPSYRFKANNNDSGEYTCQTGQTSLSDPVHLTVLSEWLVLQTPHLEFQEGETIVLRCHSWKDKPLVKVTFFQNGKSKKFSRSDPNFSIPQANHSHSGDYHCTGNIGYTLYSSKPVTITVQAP

[3] = target: T3, FcγRIIa type R (allotype R131) extracellular domain with C-terminal His tag (human, UniProt P12318 34-217); experiment: SPR; KD of IL6R-B3/IL6R-L divided by KD of the variant
T3 construct: extracellular domain; also called FcγRIIaR; FcγRIIa R type
T3 sequence (looked up): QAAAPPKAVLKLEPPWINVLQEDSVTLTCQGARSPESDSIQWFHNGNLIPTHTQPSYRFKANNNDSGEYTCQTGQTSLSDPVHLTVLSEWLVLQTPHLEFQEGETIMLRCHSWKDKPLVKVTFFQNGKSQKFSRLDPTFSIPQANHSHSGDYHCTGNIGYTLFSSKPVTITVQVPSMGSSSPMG

[4] = target: T2, FcγRIIb extracellular domain with …; experiment: as above
[5] = target: T2, FcγRIIb extracellular domain with …; experiment: SPR; KD for FcγRIIaR divided by KD for FcγRIIb

T1 sequence (P08637 other isoform, or with tags, fused parts or gaps): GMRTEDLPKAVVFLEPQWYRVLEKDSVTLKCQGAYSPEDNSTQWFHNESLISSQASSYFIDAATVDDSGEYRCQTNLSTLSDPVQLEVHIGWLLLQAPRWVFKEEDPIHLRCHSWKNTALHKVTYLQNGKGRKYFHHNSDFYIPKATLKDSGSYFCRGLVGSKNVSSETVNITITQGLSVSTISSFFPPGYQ

Row | Binder | Kd [1] [µM] | KD(IIaH)/KD(IIb) [2] | KD(IIaR) OF PARENT POLYPEPTIDE/KD(IIaR) OF ALTERED POLYPEPTIDE [3] | KD(IIb) OF PARENT POLYPEPTIDE/KD(IIb) OF ALTERED POLYPEPTIDE [4] | KD(IIaR)/KD(IIb) [5]
1 | IL6R-BP142/IL6R-L (antibody, human IgG1, kappa, name in EU numbering, Alterations introduced into IL6R-B3; also called P238D/K326N; copies: 2 + 2) heavy: QVQLQESGPGLVKPSETLSLTCAVSGHSISHDHAWSWVRQPPGEGLEWIGFISYSGITNYNPSLQGRVTISRDNSKNTLYLQMNSLRAEDTAVYYCARSLARTTAMDYWGEGTLVTVSSASTKGPSVFPLAPSSKSTSGGTAALGCLVKDYFPEPVTVSWNSGALTSGVHTFPAVLQSSGLYSLSSVVTVPSSSLGTQTYICNVNHKPSNTKVDKKVEPKSCDKTHTCPPCPAPELLGGDSVFLFPPKPKDTLMISRTPEVTCVVVDVSHEDPEVKFNWYVDGVEVHNAKTKPREEQYNSTYRVVSVLTVLHQDWLNGKEYKCKVSNNALPAPIEKTISKAKGQPREPQVYTLPPSRDELTKNQVSLTCLVKGFYPSDIAVEWESNGQPENNYKTTPPVLDSDGSFFLYSKLTVDKSRWQQGNVFSCSVMHEALHNHYTQESLSLSP light: not shown | 110 |  |  |  | 
2 | IL6R-BP483/IL6R-L (antibody, human IgG1, kappa, name in EU numbering, copies: 2 + 2) heavy: QVQLQESGPGLVKPSETLSLTCAVSGHSISHDHAWSWVRQPPGEGLEWIGFISYSGITNYNPSLQGRVTISRDNSKNTLYLQMNSLRAEDTAVYYCARSLARTTAMDYWGEGTLVTVSSASTKGPSVFPLAPSSKSTSGGTAALGCLVKDYFPEPVTVSWNSGALTSGVHTFPAVLQSSGLYSLSSVVTVPSSSLGTQTYICNVNHKPSNTKVDKKVEPKSCDKTHTCPPCPAPDLLGDDSVFLFPPKPKDTLMISRTPEVTCVVVDLAEEDGEVKFNWYVDGVEVHNAKTKPREEQYNSTYRVVSVLTVLHQDWLNGKEYKCKVSNKALPAPIEKTISKAKGQPREPQVYTLPPSRDELTKNQVSLTCLVKGFYPSDIAVEWESNGQPENNYKTTPPVLDSDGSFFLYSKLTVDKSRWQQGNVFSCSVMHEALHNHYTQESLSLSP light: not shown |  | 231 | 0.8 | 39.7 | 
3 | IL6R-BP911/IL6R-L (antibody, human IgG1, kappa, name in EU numbering, Alterations introduced into IL6R-B3; also called P238D/A330K; copies: 2 + 2) heavy: QVQLQESGPGLVKPSETLSLTCAVSGHSISHDHAWSWVRQPPGEGLEWIGFISYSGITNYNPSLQGRVTISRDNSKNTLYLQMNSLRAEDTAVYYCARSLARTTAMDYWGEGTLVTVSSASTKGPSVFPLAPSSKSTSGGTAALGCLVKDYFPEPVTVSWNSGALTSGVHTFPAVLQSSGLYSLSSVVTVPSSSLGTQTYICNVNHKPSNTKVDKKVEPKSCDKTHTCPPCPAPELLGGDSVFLFPPKPKDTLMISRTPEVTCVVVDVSHEDPEVKFNWYVDGVEVHNAKTKPREEQYNSTYRVVSVLTVLHQDWLNGKEYKCKVSNKALPKPIEKTISKAKGQPREPQVYTLPPSRDELTKNQVSLTCLVKGFYPSDIAVEWESNGQPENNYKTTPPVLDSDGSFFLYSKLTVDKSRWQQGNVFSCSVMHEALHNHYTQESLSLSP light: not shown | 58 |  |  |  | 
4 | IL6R-BP912/IL6R-L (antibody, human IgG1, kappa, name in EU numbering, Alterations introduced into IL6R-B3; also called P238D/A330R; copies: 2 + 2) heavy: QVQLQESGPGLVKPSETLSLTCAVSGHSISHDHAWSWVRQPPGEGLEWIGFISYSGITNYNPSLQGRVTISRDNSKNTLYLQMNSLRAEDTAVYYCARSLARTTAMDYWGEGTLVTVSSASTKGPSVFPLAPSSKSTSGGTAALGCLVKDYFPEPVTVSWNSGALTSGVHTFPAVLQSSGLYSLSSVVTVPSSSLGTQTYICNVNHKPSNTKVDKKVEPKSCDKTHTCPPCPAPELLGGDSVFLFPPKPKDTLMISRTPEVTCVVVDVSHEDPEVKFNWYVDGVEVHNAKTKPREEQYNSTYRVVSVLTVLHQDWLNGKEYKCKVSNKALPRPIEKTISKAKGQPREPQVYTLPPSRDELTKNQVSLTCLVKGFYPSDIAVEWESNGQPENNYKTTPPVLDSDGSFFLYSKLTVDKSRWQQGNVFSCSVMHEALHNHYTQESLSLSP light: not shown | 78 |  |  |  | 
5 | IL6R-BP269/IL6R-L (antibody, human IgG1, kappa, name in EU numbering, copies: 2 + 2) heavy: QVQLQESGPGLVKPSETLSLTCAVSGHSISHDHAWSWVRQPPGEGLEWIGFISYSGITNYNPSLQGRVTISRDNSKNTLYLQMNSLRAEDTAVYYCARSLARTTAMDYWGEGTLVTVSSASTKGPSVFPLAPSSKSTSGGTAALGCLVKDYFPEPVTVSWNSGALTSGVHTFPAVLQSSGLYSLSSVVTVPSSSLGTQTYICNVNHKPSNTKVDKKVEPKSCDKTHTCPPCPAPELLGDDSVFLFPPKPKDTLMISRTPEVTCVVVDVSEEDGEVKFNWYVDGVEVHNAKTKPREEQDNSTYRVVSVLTVLHQDWLNGKEYKCKVSNKALPAPIEKTISKAKGQPREPQVYTLPPSRDELTKNQVSLTCLVKGFYPSDIAVEWESNGQPENNYKTTPPVLDSDGSFFLYSKLTVDKSRWQQGNVFSCSVMHEALHNHYTQESLSLSP light: not shown |  | 637 | 0.5 | 27.4 | 19.6
6 | IL6R-BP262/IL6R-L (antibody, human IgG1, kappa, name in EU numbering, copies: 2 + 2) heavy: QVQLQESGPGLVKPSETLSLTCAVSGHSISHDHAWSWVRQPPGEGLEWIGFISYSGITNYNPSLQGRVTISRDNSKNTLYLQMNSLRAEDTAVYYCARSLARTTAMDYWGEGTLVTVSSASTKGPSVFPLAPSSKSTSGGTAALGCLVKDYFPEPVTVSWNSGALTSGVHTFPAVLQSSGLYSLSSVVTVPSSSLGTQTYICNVNHKPSNTKVDKKVEPKSCDKTHTCPPCPAPELLGDDSVFLFPPKPKDTLMISRTPEVTCVVVDVSEEDGEVKFNWYVDGVEVHNAKTKPREEQYNSTYRVVSVLTVLHQDWLNGKEYKCKVSNKALPAPIEKTISKAKGQPREPQVYTLPPSRDELTKNQVSLTCLVKGFYPSDIAVEWESNGQPENNYKTTPPVLDSDGSFFLYSKLTVDKSRWQQGNVFSCSVMHEALHNHYTQESLSLSP light: not shown |  | 375 | 0.5 | 25.8 | 17
7 | IL6R-BP479/IL6R-L (antibody, human IgG1, kappa, name in EU numbering, copies: 2 + 2) heavy: QVQLQESGPGLVKPSETLSLTCAVSGHSISHDHAWSWVRQPPGEGLEWIGFISYSGITNYNPSLQGRVTISRDNSKNTLYLQMNSLRAEDTAVYYCARSLARTTAMDYWGEGTLVTVSSASTKGPSVFPLAPSSKSTSGGTAALGCLVKDYFPEPVTVSWNSGALTSGVHTFPAVLQSSGLYSLSSVVTVPSSSLGTQTYICNVNHKPSNTKVDKKVEPKSCDKTHTCPPCPAPDLLGDDSVFLFPPKPKDTLMISRTPEVTCVVIDLAEEDGEVKFNWYVDGVEVHNAKTKPREEQYNSTYRVVSVLTVLHQDWLNGKEYKCKVSNKALPAPIEKTISKAKGQPREPQVYTLPPSRDELTKNQVSLTCLVKGFYPSDIAVEWESNGQPENNYKTTPPVLDSDGSFFLYSKLTVDKSRWQQGNVFSCSVMHEALHNHYTQESLSLSP light: not shown |  | 268 | 1.2 | 55.5 | 16.1
8 | IL6R-BP484/IL6R-L (antibody, human IgG1, kappa, name in EU numbering, copies: 2 + 2) heavy: QVQLQESGPGLVKPSETLSLTCAVSGHSISHDHAWSWVRQPPGEGLEWIGFISYSGITNYNPSLQGRVTISRDNSKNTLYLQMNSLRAEDTAVYYCARSLARTTAMDYWGEGTLVTVSSASTKGPSVFPLAPSSKSTSGGTAALGCLVKDYFPEPVTVSWNSGALTSGVHTFPAVLQSSGLYSLSSVVTVPSSSLGTQTYICNVNHKPSNTKVDKKVEPKSCDKTHTCPPCPAPDLLGDDSVFLFPPKPKDTLMISRTPEVTCVVVDVAEDDGEVKFNWYVDGVEVHNAKTKPREEQYNSTYRVVSVLTVLHQDWLNGKEYKCKVSNKALPAPIEKTISKAKGQPREPQVYTLPPSRDELTKNQVSLTCLVKGFYPSDIAVEWESNGQPENNYKTTPPVLDSDGSFFLYSKLTVDKSRWQQGNVFSCSVMHEALHNHYTQESLSLSP light: not shown |  | 241 | 1.4 | 67.3 | 17.1
9 | IL6R-BP481/IL6R-L (antibody, human IgG1, kappa, name in EU numbering, copies: 2 + 2) heavy: QVQLQESGPGLVKPSETLSLTCAVSGHSISHDHAWSWVRQPPGEGLEWIGFISYSGITNYNPSLQGRVTISRDNSKNTLYLQMNSLRAEDTAVYYCARSLARTTAMDYWGEGTLVTVSSASTKGPSVFPLAPSSKSTSGGTAALGCLVKDYFPEPVTVSWNSGALTSGVHTFPAVLQSSGLYSLSSVVTVPSSSLGTQTYICNVNHKPSNTKVDKKVEPKSCDKTHTCPPCPAPDLLGDDSVFLFPPKPKDTLMISRTPEVTCVVIDVAEEDGEVKFNWYVDGVEVHNAKTKPREEQYNSTYRVVSVLTVLHQDWLNGKEYKCKVSNKALPAPIEKTISKAKGQPREPQVYTLPPSRDELTKNQVSLTCLVKGFYPSDIAVEWESNGQPENNYKTTPPVLDSDGSFFLYSKLTVDKSRWQQGNVFSCSVMHEALHNHYTQESLSLSP light: not shown |  | 350 | 2.8 | 160 | 20.5
